According to article PMC8294335 (Molecular Cell, 2021):

Target: the molecule itself
Test: cryo-EM structure

B1: GFP-HCN4ΔC (rabbit HCN4 carrying an internal deletion from residues 783 to 1064, with N-terminal decahistidine-eGFP tag) (natural protein)
chain: MDKLPPSMRKRLYSLPQQVGAKAWIMDEEEDAEEEGAGGRQDPRRRSIRLRPLPSPSPSPSAAAAAAGGAESRGAALGGAADGEGPARGAAKSSTNGDCRRFRGSLASLGSRGGGGGGGSTGGGSHGHLHDSAEERRLIAEGDASPGEDRTPPGLAAEPERPGAPAPPAASPPQVPSSCGEQRPADAAVKVEGGAAAGDQILPEAEARLGQAGFMQRQFGAMLQPGVNKFSLRMFGSQKAVEREQERVKSAGFWIIHPYSDFRFYWDLTMLLLMVGNLIIIPVGITFFKDENTTPWIVFNVVSDTFFLIDLVLNFRTGIVVEDNTDIILDPRRIKMKYLKSWFVVDFVSSIPVDYIFLIVETRIDSEVYKTARALRIVRFTKILSLLRLLRLSRLIRYIHQWEEIFHMTYDLASAVVRIVNLIGMMLLLCHWDGCLQFLVPMLQDFPDDCWVSLNNMVNNSWGKQYSYALFKAMSHMLCIGYGRQAPMGMSDVWLTMLSMIVGATCYAMFIGHATALIQSLDSSRRQYQEKYKQVEQYMSFHKLPPDTRQRIHDYYEHRYQGKMFDEESILGELSEPLREEIINFNCRKLVASMPLFANADPNFVTSMLTKLRFEVFQPGDYIIREGTIGKKMYFIQHGVVSVLTKGNKETKLADGSYFGEICLLTRGRRTASVRADTYCRLYSLSVDNFNEVLEEYPMMRRAFETVALDRLDRIGKKNSILLHKVQHDLSSGVSNYQENAIVQRIVQHDREMAHCARRAQATTPVAPAIWTPLIQAPLQAAQDLKLISASQPALPQDGAQTLRRASPHSSSGESVAALPPFPRAPGRPPGAGPGQHVTLTLPRKASSGSLPPPLSLFGPRAAPAGGPRLTAAPQREPGAKSEPVRSKLPSNL
  stoichiometry N: 4
